Measured values published in US9284543B2, “Neutral active soluble truncated PH20 polypeptides and uses thereof” (Halozyme, Inc., priority 2008, dated 2016).
Each block holds one molecule with its values, some of them ahead of it.

Key:
[1] = Microtiter hyaluronidase activity assay with biotinylated-hyaluronic acid; assay type: biochemical; settings: for pH 5.5 Activity / pH 7.4 Activity: 72 hour post transfection supernatant; for Hyaluronidase activity (in words): pH 7.4 and pH 5.5
CHO-S cells = assay: PI-PLC treatment of expressing cells, Western blot of media and cells; assay type: cell-based, Chinese Hamster; settings: cells incubated with PI-PLC for 2 hours
Description: In this example, following transient expression, as described in Example 2 above, the media and cells were harvested separately and analyzed for PH20 expression and solublility by Western blot analysis. Solubility of the C-terminus truncation mutants was determined by examining whether the expressed protein was present in the growth media or in the cells. […] Cells expressing these mutants were treated with phosphoinositol-phospholipase C (PI-PLC), which cleaves the GPI-anchor allowing the release of soluble protein into the media, and the presence of PH20 in the resulting media and cells was determined by Western blot analysis.
Following expression of rHuPH20 in CHO—S cells for 72 hours, as described in Example 2A above, the media and cells were harvested separately. The cells were washed with serum-free media followed by the addition of 2 mL serum-free media per well. PI-PLC (0.5 units/well) was added to each well and the cells were incubated in the PI-PLC for 2 hours. The resultant media and cells were analyzed by Western blot analysis as described above.
Two plates each of rHuPH20 expressing CHO—S cells, one for treatment with PI-PLC and one without treatment with PI-PLC, were prepared for each C-terminus mutant as described in Example 2B above. Following expression for 48 hours, for cells untreated with PI-PLC, the media and cells were harvested separately. The harvested media was spun down, concentrated to a volume of 10 mL, and buffer exchanged into PBS using an Amicon 30 kD MWCO concentrator. The cells were rinsed with cold PBS and scraped and resuspended in 1.2 mL PBS with protease inhibitor Set III (Cat No. 539134, Calbiochem). The resuspended cells were briefly sonicated to prepare whole-cell extract. For PI-PLC treatment of cells, following expression for 48 hours, the untreated media was harvested, as described above. The cells were rinsed once with fresh CD DG44 medium with Glutamax-1, and the media was replaced with 12 mL fresh detergent free CD DG44 medium supplemented with Glutamax-1 with 3.0 units PI-PLC per dish, and the cells were incubated for 2 hours at 37° C. with 5% CO2. After 2 hours, the PI-PLC media and cells were harvested separately, as described above. The resultant untreated media and cells, and PI-PLC treated media and cells, were analyzed by Western blot analysis as described above.

pH 5.5 Activity ([1]; Table 6): 1.125 Units/ml | pH 7.4 Activity ([1]; Table 6): 1.4715 Units/ml | pH 5.5 Activity ([1]; Table 6A): 1.256 Units/ml | pH 7.4 Activity ([1]; Table 6A): 1.782 Units/ml
B1: SPAM1-SSVA: C-terminally truncated human PH20, precursor 507 aa (SEQ ID NO:3), mature 472 aa (SEQ ID NO:55) (protein, listed as Homo sapiens)
chain 1: MGVLKFKHIFFRSFVKSSGVSQIVFTFLLIPCCLTLNFRAPPVIPNVPFLWAWNAPSEFCLGKFDEPLDMSLFSFIGSPRINATGQGVTIFYVDRLGYYPYIDSITGVTVNGGIPQKISLQDHLDKAKKDITFYMPVDNLGMAVIDWEEWRPTWARNWKPKDVYKNRSIELVQQQNVQLSLTEATEKAKQEFEKAGKDFLVETIKLGKLLRPNHLWGYYLFPDCYNHHYKKPGYNGSCFNVEIKRNDDLSWLWNESTALYPSIYLNTQQSPVAATLYVRNRVREAIRVSKIPDAKSPLPVFAYTRIVFTDQVLKFLSQDELVYTFGETVALGASGIVIWGTLSIMRSMKSCLLLDNYMETILNPYIINVTLAAKMCSQVLCQEQGVCIRKNWNSSDYLHLNPDNFAIQLEKGGKFTVRGKPTLEDLEQFSEKFYCSCYSTLSCKEKADVKDTDAVDVCIADGVCIDAFLKPPMETEEPQIFYNASPSTLSATMFIVSILFLIISSVA
chain 2: LNFRAPPVIPNVPFLWAWNAPSEFCLGKFDEPLDMSLFSFIGSPRINATGQGVTIFYVDRLGYYPYIDSITGVTVNGGIPQKISLQDHLDKAKKDITFYMPVDNLGMAVIDWEEWRPTWARNWKPKDVYKNRSIELVQQQNVQLSLTEATEKAKQEFEKAGKDFLVETIKLGKLLRPNHLWGYYLFPDCYNHHYKKPGYNGSCFNVEIKRNDDLSWLWNESTALYPSIYLNTQQSPVAATLYVRNRVREAIRVSKIPDAKSPLPVFAYTRIVFTDQVLKFLSQDELVYTFGETVALGASGIVIWGTLSIMRSMKSCLLLDNYMETILNPYIINVTLAAKMCSQVLCQEQGVCIRKNWNSSDYLHLNPDNFAIQLEKGGKFTVRGKPTLEDLEQFSEKFYCSCYSTLSCKEKADVKDTDAVDVCIADGVCIDAFLKPPMETEEPQIFYNASPSTLSATMFIVSILFLIISSVA
modifications: HuPH20 precursor 1-507; mature HuPH20 36-507
Expressed in Media Following Addition of PI-PLC (CHO-S cells): YES

pH 5.5 Activity ([1]; Table 6): 0.0405 Units/ml | pH 7.4 Activity ([1]; Table 6): 0.0405 Units/ml | pH 5.5 Activity ([1]; Table 6A): 0.122 Units/ml | pH 7.4 Activity ([1]; Table 6A): 0.446 Units/ml
B2: SPAM1-ILFL: C-terminally truncated human PH20, precursor 501 aa (SEQ ID NO:6), mature 466 aa (SEQ ID NO:58) (protein, listed as Homo sapiens)
chain 1: MGVLKFKHIFFRSFVKSSGVSQIVFTFLLIPCCLTLNFRAPPVIPNVPFLWAWNAPSEFCLGKFDEPLDMSLFSFIGSPRINATGQGVTIFYVDRLGYYPYIDSITGVTVNGGIPQKISLQDHLDKAKKDITFYMPVDNLGMAVIDWEEWRPTWARNWKPKDVYKNRSIELVQQQNVQLSLTEATEKAKQEFEKAGKDFLVETIKLGKLLRPNHLWGYYLFPDCYNHHYKKPGYNGSCFNVEIKRNDDLSWLWNESTALYPSIYLNTQQSPVAATLYVRNRVREAIRVSKIPDAKSPLPVFAYTRIVFTDQVLKFLSQDELVYTFGETVALGASGIVIWGTLSIMRSMKSCLLLDNYMETILNPYIINVTLAAKMCSQVLCQEQGVCIRKNWNSSDYLHLNPDNFAIQLEKGGKFTVRGKPTLEDLEQFSEKFYCSCYSTLSCKEKADVKDTDAVDVCIADGVCIDAFLKPPMETEEPQIFYNASPSTLSATMFIVSILFL
chain 2: LNFRAPPVIPNVPFLWAWNAPSEFCLGKFDEPLDMSLFSFIGSPRINATGQGVTIFYVDRLGYYPYIDSITGVTVNGGIPQKISLQDHLDKAKKDITFYMPVDNLGMAVIDWEEWRPTWARNWKPKDVYKNRSIELVQQQNVQLSLTEATEKAKQEFEKAGKDFLVETIKLGKLLRPNHLWGYYLFPDCYNHHYKKPGYNGSCFNVEIKRNDDLSWLWNESTALYPSIYLNTQQSPVAATLYVRNRVREAIRVSKIPDAKSPLPVFAYTRIVFTDQVLKFLSQDELVYTFGETVALGASGIVIWGTLSIMRSMKSCLLLDNYMETILNPYIINVTLAAKMCSQVLCQEQGVCIRKNWNSSDYLHLNPDNFAIQLEKGGKFTVRGKPTLEDLEQFSEKFYCSCYSTLSCKEKADVKDTDAVDVCIADGVCIDAFLKPPMETEEPQIFYNASPSTLSATMFIVSILFL
modifications: HuPH20 precursor 1-501; mature HuPH20 36-501
Hyaluronidase activity (in words) [1]: little detectable activity | Expressed in Media Following Addition of PI-PLC (CHO-S cells): YES

pH 5.5 Activity ([1]; Table 6A): 0.324 Units/ml | pH 7.4 Activity ([1]; Table 6A): 0.608 Units/ml
B3: SPAM1-LFLI: C-terminally truncated human PH20, precursor 502 aa (SEQ ID NO:47), mature 467 aa (SEQ ID NO:99) (protein, listed as Homo sapiens)
chain 1: MGVLKFKHIFFRSFVKSSGVSQIVFTFLLIPCCLTLNFRAPPVIPNVPFLWAWNAPSEFCLGKFDEPLDMSLFSFIGSPRINATGQGVTIFYVDRLGYYPYIDSITGVTVNGGIPQKISLQDHLDKAKKDITFYMPVDNLGMAVIDWEEWRPTWARNWKPKDVYKNRSIELVQQQNVQLSLTEATEKAKQEFEKAGKDFLVETIKLGKLLRPNHLWGYYLFPDCYNHHYKKPGYNGSCFNVEIKRNDDLSWLWNESTALYPSIYLNTQQSPVAATLYVRNRVREAIRVSKIPDAKSPLPVFAYTRIVFTDQVLKFLSQDELVYTFGETVALGASGIVIWGTLSIMRSMKSCLLLDNYMETILNPYIINVTLAAKMCSQVLCQEQGVCIRKNWNSSDYLHLNPDNFAIQLEKGGKFTVRGKPTLEDLEQFSEKFYCSCYSTLSCKEKADVKDTDAVDVCIADGVCIDAFLKPPMETEEPQIFYNASPSTLSATMFIVSILFLI
chain 2: LNFRAPPVIPNVPFLWAWNAPSEFCLGKFDEPLDMSLFSFIGSPRINATGQGVTIFYVDRLGYYPYIDSITGVTVNGGIPQKISLQDHLDKAKKDITFYMPVDNLGMAVIDWEEWRPTWARNWKPKDVYKNRSIELVQQQNVQLSLTEATEKAKQEFEKAGKDFLVETIKLGKLLRPNHLWGYYLFPDCYNHHYKKPGYNGSCFNVEIKRNDDLSWLWNESTALYPSIYLNTQQSPVAATLYVRNRVREAIRVSKIPDAKSPLPVFAYTRIVFTDQVLKFLSQDELVYTFGETVALGASGIVIWGTLSIMRSMKSCLLLDNYMETILNPYIINVTLAAKMCSQVLCQEQGVCIRKNWNSSDYLHLNPDNFAIQLEKGGKFTVRGKPTLEDLEQFSEKFYCSCYSTLSCKEKADVKDTDAVDVCIADGVCIDAFLKPPMETEEPQIFYNASPSTLSATMFIVSILFLI
modifications: HuPH20 precursor 1-502; Mature HuPH20 36-502
Hyaluronidase activity (in words) [1]: little detectable activity | Expressed in Media Following Addition of PI-PLC (CHO-S cells): YES
